In paper PMC6241527 (Science (New York, N.Y.), 2018):

Columns and labels:
[1] = target: T1, H1 hemagglutinin (A/Brisbane/59/07) (Influenza A virus …); experiment: cell-based or functional assay
[2] = target: T1, H1 hemagglutinin (A/Brisbane/59/07)
[3] = target: T2, influenza B hemagglutinin (B/Brisbane/60/08) (influenza B virus (B/Brisbane/60/08), N-linked glycans at N301 and N330 (HA1)); experiment: crystal structure
T2 chain 1: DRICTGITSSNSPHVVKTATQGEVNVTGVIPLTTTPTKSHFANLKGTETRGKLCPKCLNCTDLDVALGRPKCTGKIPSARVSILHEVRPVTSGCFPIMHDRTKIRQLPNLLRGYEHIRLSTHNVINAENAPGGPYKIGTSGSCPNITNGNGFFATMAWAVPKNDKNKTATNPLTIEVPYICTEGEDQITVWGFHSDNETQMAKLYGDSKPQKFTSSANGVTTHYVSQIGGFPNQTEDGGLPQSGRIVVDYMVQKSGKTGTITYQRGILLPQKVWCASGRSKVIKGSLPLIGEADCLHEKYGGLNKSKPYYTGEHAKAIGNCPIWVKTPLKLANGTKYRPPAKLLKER
T2 chain 2: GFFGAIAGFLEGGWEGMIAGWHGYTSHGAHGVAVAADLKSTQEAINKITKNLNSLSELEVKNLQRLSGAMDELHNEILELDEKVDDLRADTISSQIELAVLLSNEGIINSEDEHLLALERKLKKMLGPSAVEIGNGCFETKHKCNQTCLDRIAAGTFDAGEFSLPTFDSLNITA

[4] = target: T3, H1 hemagglutinin (A/Solomon Islands/3/06) (influenza A virus (A/Solomon …)); experiment: crystal structure
T3 chain 1: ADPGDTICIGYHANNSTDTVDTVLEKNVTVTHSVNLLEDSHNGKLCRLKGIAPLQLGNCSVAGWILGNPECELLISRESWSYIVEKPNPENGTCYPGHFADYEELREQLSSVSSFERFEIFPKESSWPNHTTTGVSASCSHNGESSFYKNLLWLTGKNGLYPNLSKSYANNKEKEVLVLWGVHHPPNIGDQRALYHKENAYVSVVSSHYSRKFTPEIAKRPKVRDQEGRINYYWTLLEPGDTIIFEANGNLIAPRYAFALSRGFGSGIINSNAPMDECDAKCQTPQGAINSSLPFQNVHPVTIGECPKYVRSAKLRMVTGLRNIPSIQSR
T3 chain 2: not shown

B1: single-domain antibody SD36 (VHH)
VHH: EVQLVESGGGLVQAGGSLKLSCAASGRTYAMGWFRQAPGKEREFVAHINALGTRTYYSDSVKGRFTISRDNAKNTEYLEMNNLKPEDTAVYYCTAQGQWRAAPVAVAAEYEFWGQGTQVTVSS
- in vitro neutralisation of the corresponding virus (A/Brisbane/59/07), IC50 [1]: > 1000 nM
- Kd [2]: 290 nM

B2: single-domain antibody SD83 (VHH)
VHH: EVQLVESGGGLVQPGGSLRLSCAATGFTLENKAIGWFRQTPGSEREGVLCISKSGSWTYYTDSMRGRFTISRDNAENTVYLQMDSLKPEDTAVYYCATTTAGGGLCWDGTTFSRLASSWGQGTQVTVSS
- stoichiometry N [3]: 3 sdAbs per HA trimer

B3: single-domain antibody SD38 (VHH)
VHH: EVQLVESGGGLVQPGGSLRLSCAVSISIFDIYAMDWYRQAPGKQRDLVATSFRDGSTNYADSVKGRFTISRDNAKNTLYLQMNSLKPEDTAVYLCHVSLYRDPLGVAGGMGVYWGKGALVTVSS
- stoichiometry N [4]: 3 sdAbs per HA trimer
